Experimental data: US20260167703A1

What was measured:
[1] = molecular target: DENV-2 E protein Domain III (Dengue virus serotype 2, strain Thailand/16681/1984); test: BLI, mAb on AR2G biosensor, 20 ug/mL Domain III, 1200 sec
[2] = molecular target: DENV-4 E protein Domain III (Dengue virus serotype 4, strain Indonesia/1036/1976); test: as above
[3] = molecular target: DENV-2 VLP (Dengue virus serotype 2, strain Thailand/16681/84); test: Luminex, VLP-coupled beads
[4] = molecular target: Dengue Virus Serotype 2 envelope protein (Dengue virus serotype 2, strain Thailand/16681/84); test: Luminex bead assay (antigen on MagPlex beads, MFI)

4G2 (antibody) showed a Response (nm) [1] of 0.0174 nm and a Response (nm) [2] of 0.056 nm.
With 777-2 (DV2-3H5) (antibody) the EC50 [3] was 0.0749 µg/mL, the Response (nm) [1] was 0.303 nm and the EC50 (read off the curve) [4] was 0.06 µg/mL.
In the case of 3H5 (antibody), the Response (nm) [1] is reported as 0.488 nm.
